Experiments:
[1] = target: T1, IL-2 protein (Homo sapiens, UniProt P60568, C145S); assay: Isothermal titration calorimetry (ITC), interaction with IL-2; assay type: binding; conditions: SDS with IL-2, 7.69 mM sodium phosphate buffer, 25° C.; read-out: equilibrium dissociation constant Kd
T1 construct: made in house; host or cells: Escherichia coli
Experimental: (1) Preparation of samples: • A. PEG2000-DSPE solution: dissolved in 10 mM sodium acetate buffer (pH=5.5), with a concentration of 0.5 mM; • B. SDS solution: dissolved in 7.69 mM sodium phosphate buffer (pH=7.6), with a concentration of 1.73 mM; • C. IL-2 solution: dissolved in 10 mM sodium acetate buffer (pH=5.5), with a concentration of 0.005 mM; • D. IL-2 solution: dissolved in 7.69 mM sodium phosphate buffer (pH=7.0), with a concentration of 0.0164 mM.
10 The MicroCal ITC 200 isothermal titration calorimeter and its supporting operating software from Malvern Panalytical Company were used. Refer to the table below for specific parameter settings:
(3) To determine the interaction between PEG2000-PE and IL-2, 40 μl sample A was added to the syringe, and 250 μl sample C was added to the sample cell. To determine the interaction between SDS and IL-2, 40 μl sample B was added to the syringe, and 250 μl sample D was added to the cell. […] After the reaction was completed, the measured heat change was integrated and subjected to reaction curve fitting (FIG. 4) to calculate various parameters of the interaction between the two samples, wherein the K value measured in the ITC is the binding constant, with a unit of M-1, and its reciprocal is the dissociation constant Kd of the two substances, with a unit of M. The smaller the Kd value, the stronger the affinity between the two substances.

[2] = in serum in vivo; cited from earlier work
[3] = target: T2, βγ dimer (Homo sapiens, UniProt P14784+P31785); conditions: medium affinity; cited from earlier work
T2 sequence (P14784 27-551): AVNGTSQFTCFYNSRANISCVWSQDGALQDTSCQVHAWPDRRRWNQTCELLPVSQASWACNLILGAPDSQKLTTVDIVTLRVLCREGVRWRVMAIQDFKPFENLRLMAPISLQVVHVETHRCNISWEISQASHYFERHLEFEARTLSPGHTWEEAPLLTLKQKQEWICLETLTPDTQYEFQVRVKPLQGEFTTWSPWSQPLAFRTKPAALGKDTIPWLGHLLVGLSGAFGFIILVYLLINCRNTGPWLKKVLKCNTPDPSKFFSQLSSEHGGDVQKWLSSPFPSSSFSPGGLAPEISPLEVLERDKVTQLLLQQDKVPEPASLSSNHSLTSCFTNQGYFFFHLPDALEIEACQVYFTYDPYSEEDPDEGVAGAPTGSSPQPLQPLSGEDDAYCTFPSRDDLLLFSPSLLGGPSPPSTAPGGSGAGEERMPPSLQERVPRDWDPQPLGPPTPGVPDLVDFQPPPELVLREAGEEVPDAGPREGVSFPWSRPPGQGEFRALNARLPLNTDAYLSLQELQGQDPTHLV
T2 sequence (P31785 23-369): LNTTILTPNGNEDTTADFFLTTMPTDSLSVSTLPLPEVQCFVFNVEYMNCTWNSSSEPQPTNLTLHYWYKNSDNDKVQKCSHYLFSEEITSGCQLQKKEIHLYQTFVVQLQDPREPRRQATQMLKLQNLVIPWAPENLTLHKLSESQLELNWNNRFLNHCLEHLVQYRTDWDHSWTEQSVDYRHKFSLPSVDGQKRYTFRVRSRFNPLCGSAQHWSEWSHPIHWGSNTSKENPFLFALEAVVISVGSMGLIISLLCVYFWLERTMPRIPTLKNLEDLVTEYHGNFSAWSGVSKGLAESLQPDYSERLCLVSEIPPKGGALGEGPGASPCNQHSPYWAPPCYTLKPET

T1 sequence (P60568 21-153 C145S): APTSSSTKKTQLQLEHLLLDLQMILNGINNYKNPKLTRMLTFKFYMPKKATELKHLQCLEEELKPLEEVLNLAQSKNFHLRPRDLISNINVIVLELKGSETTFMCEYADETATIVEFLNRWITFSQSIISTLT

Molecule | Kd [1] | half-life [2] | Kd [3]
CCCCCCCCCCCCOS(=O)(=O)[O-].[Na+] [SDS, sodium dodecyl sulfate] | ~37.3 µM |  | 
IL2: T cell growth factor, glycoprotein of four α-helices, molecular weight 15.5 Kd |  | 10 to 85 min | ~0.001 µM

Source: patent publication US20250108091A1, “PROTEIN FORMULATION, PREPARATION METHOD THEREFOR AND USE THEREOF” (BEIJING LIANGYUAN BIO-SCIENCE, LLC, priority 2022, published 2025)
